Drawing on paper PMC4335062, “Data-Driven Prediction and Design of bZIP Coiled-Coil Interactions” (PLoS Computational Biology, 2015), this text covers Kd for two molecules.

Where “and” joins values, the source holds several entries; their conditions need not be identical. Identical values can stand only once. Where no end group is shown, it is not given here.

In test [1] the target is T1, JUN (Homo sapiens, UniProt P05412). Briefly: FRET or BRET; direct-binding FRET in 384-well plates; rhodamine-labelled design (acceptor) titrated 0 to 1 uM into 10 nM fluorescein-labelled bZIP (donor); 150 mM KCl, 50 mM potassium phosphate pH 7.4, 0.1% Tween-20, 0.1% BSA; 23 °C. (In BRET a luciferase serves as donor, and the signal depends on an acceptor being close.)
In test [2] the target is T2, FOS (Homo sapiens, UniProt P01100). Description: FRET or BRET; direct-binding FRET in 384-well plates; rhodamine-labelled design (acceptor) titrated 0 to 1 uM into 10 nM fluorescein-labelled bZIP (donor); 150 mM KCl, 50 mM potassium phosphate pH 7.4, 0.1% Tween-20, 0.1% BSA; 4 °C.
Test [3] addresses Activating Transcription Factor (ATF) 3 (human) (UniProt P18847). Described as above.
Test [4] concerns the target DBP (human) (UniProt Q10586). The test is described as above.
For test [5], the target named is CREB1 (human) (UniProt P16220). Briefly: FRET or BRET; direct-binding FRET in 384-well plates; rhodamine-labelled design (acceptor) titrated 0 to 1 uM into 10 nM fluorescein-labelled bZIP (donor); 150 mM KCl, 50 mM potassium phosphate pH 7.4, 0.1% Tween-20, 0.1% BSA; 37 °C.
Test [6] has as its target T2, FOS. The test is described as above.
The target of test [7] is MAFG (Homo sapiens, UniProt O15525). Described as above.
Test [8] addresses NFE2 (human) (UniProt Q16621). Described as above.
For test [9], the target named is X-box binding protein 1 (human) (UniProt P17861). Described as above.
Test [10] has as its target Activating Transcription Factor (ATF) 3 (human) (UniProt P18847). Described as above.
The target of test [11] is NFE2L3 (human) (UniProt Q9Y4A8). Described as above.
The target in test [12] is T3, ATF6B (Homo sapiens, UniProt Q99941). Described as above.
The target in test [13] is MAFF (human) (UniProt Q9ULX9). The test is described as above.
In test [14] the target is T1, JUN. The test is described as above.
The target of test [15] is ATF4 (human) (UniProt P18848). Described as above.
Test [16] addresses T4, MAF (Homo sapiens, UniProt O75444). Briefly: FRET or BRET; direct-binding FRET in 384-well plates; rhodamine-labelled design (acceptor) titrated 0 to 1 uM into 10 nM fluorescein-labelled bZIP (donor); 150 mM KCl, 50 mM potassium phosphate pH 7.4, 0.1% Tween-20, 0.1% BSA; 23 °C.
The target in test [17] is T3, ATF6B. The test is described as above.
For test [18], the target named is MAFF (human) (UniProt Q9ULX9). The description is as above.
For test [19], the target named is ATF4 (human) (UniProt P18848). The description is as above.
Test [20] concerns the target T4, MAF. Description: FRET or BRET; direct-binding FRET in 384-well plates; rhodamine-labelled design (acceptor) titrated 0 to 1 uM into 10 nM fluorescein-labelled bZIP (donor); 150 mM KCl, 50 mM potassium phosphate pH 7.4, 0.1% Tween-20, 0.1% BSA; 4 °C.
Test [21] concerns the target ATF5 (human) (UniProt Q9Y2D1). Described as above.
Test [22] has as its target T1, JUN. The description is as above.
The target of test [23] is X-box binding protein 1 (human) (UniProt P17861). Described as above.
Test [24] addresses T3, ATF6B. Described as above.
Test [25] concerns the target MAFF (human) (UniProt Q9ULX9). Described as above.
The target of test [26] is ATF2 (human) (UniProt P15336). Described as above.
In test [27] the target is T5, MAFB (Homo sapiens, UniProt Q9Y5Q3). The description is as above.
Test [28] addresses BATF (human) (UniProt Q16520). Briefly: FRET or BRET; direct-binding FRET in 384-well plates; rhodamine-labelled design (acceptor) titrated 0 to 1 uM into 10 nM fluorescein-labelled bZIP (donor); 150 mM KCl, 50 mM potassium phosphate pH 7.4, 0.1% Tween-20, 0.1% BSA; 37 °C.
The target in test [29] is BATF2 (human) (UniProt Q8N1L9). The test is described as above.
Test [30] deals with T5, MAFB. The description is as above.

T3 sequence (Q99941 whole entry): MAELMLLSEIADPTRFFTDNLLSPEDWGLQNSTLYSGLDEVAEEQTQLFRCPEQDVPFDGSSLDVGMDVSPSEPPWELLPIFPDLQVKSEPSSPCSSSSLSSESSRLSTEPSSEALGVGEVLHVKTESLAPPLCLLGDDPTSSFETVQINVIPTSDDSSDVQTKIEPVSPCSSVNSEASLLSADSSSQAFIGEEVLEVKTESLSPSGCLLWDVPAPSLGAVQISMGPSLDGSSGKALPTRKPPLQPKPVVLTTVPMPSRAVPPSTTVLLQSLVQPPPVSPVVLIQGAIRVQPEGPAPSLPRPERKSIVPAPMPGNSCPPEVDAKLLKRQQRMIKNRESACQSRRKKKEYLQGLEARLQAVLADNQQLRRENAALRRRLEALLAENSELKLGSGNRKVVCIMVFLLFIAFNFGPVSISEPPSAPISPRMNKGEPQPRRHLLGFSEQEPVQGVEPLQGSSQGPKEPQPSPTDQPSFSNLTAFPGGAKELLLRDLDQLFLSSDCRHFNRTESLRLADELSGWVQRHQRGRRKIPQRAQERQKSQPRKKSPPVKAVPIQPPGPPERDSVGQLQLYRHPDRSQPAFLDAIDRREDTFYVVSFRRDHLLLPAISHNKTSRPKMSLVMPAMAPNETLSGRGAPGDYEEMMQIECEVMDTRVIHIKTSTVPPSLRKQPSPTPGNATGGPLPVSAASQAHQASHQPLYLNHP
Chain of MAFF (human) (Q9ULX9 whole entry): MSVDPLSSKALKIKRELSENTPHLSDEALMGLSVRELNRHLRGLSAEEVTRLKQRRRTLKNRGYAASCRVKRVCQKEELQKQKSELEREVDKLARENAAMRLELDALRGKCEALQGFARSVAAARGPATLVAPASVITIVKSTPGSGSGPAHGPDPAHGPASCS
T1 sequence (P05412 whole entry): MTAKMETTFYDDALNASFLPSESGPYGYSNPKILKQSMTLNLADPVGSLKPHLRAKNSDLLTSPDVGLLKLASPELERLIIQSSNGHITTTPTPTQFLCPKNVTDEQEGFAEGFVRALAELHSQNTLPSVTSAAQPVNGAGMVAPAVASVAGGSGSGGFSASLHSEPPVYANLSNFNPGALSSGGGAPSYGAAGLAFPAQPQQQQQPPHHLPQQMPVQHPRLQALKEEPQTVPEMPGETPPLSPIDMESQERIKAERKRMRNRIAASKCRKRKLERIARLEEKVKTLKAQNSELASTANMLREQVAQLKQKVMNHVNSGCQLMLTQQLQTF
T2 sequence (P01100 whole entry): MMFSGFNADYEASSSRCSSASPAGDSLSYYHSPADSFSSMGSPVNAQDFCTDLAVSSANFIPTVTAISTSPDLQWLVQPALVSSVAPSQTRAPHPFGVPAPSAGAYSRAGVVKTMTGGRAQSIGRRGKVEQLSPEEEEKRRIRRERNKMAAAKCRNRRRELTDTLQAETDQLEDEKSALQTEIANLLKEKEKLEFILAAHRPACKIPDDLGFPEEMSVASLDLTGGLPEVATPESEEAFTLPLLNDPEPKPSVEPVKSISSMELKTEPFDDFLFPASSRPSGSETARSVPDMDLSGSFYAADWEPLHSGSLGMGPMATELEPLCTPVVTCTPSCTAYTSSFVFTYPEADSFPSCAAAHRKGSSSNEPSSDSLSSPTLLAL
Chain of ATF4 (human) (P18848 whole entry): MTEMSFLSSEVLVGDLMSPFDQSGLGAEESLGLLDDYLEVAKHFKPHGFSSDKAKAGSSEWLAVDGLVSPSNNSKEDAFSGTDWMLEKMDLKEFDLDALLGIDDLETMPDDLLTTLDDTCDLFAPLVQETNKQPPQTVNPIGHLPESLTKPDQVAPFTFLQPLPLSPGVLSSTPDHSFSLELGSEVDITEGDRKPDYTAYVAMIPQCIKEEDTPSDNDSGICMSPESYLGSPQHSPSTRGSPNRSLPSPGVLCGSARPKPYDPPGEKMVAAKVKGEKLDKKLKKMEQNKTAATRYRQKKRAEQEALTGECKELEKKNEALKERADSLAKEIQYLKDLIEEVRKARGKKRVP
Chain of ATF5 (human) (Q9Y2D1 whole entry): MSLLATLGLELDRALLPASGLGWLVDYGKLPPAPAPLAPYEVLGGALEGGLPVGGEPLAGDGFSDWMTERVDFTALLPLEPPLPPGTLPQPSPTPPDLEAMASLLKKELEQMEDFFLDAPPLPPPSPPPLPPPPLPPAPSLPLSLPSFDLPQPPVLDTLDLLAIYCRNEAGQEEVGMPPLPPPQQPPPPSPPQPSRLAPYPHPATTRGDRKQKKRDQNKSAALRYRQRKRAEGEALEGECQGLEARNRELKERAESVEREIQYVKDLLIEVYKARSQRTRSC
T4 sequence (O75444 whole entry): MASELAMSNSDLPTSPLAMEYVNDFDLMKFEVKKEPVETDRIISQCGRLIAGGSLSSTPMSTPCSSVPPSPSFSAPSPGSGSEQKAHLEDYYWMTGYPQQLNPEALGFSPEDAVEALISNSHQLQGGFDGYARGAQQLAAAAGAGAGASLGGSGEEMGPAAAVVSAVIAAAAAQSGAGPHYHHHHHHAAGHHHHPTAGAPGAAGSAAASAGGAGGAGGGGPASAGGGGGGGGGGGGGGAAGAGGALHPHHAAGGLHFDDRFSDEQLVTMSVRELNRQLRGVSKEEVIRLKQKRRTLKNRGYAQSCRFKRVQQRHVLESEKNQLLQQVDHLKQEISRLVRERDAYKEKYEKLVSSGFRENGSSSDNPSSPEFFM
Chain of Activating Transcription Factor (ATF) 3 (human) (P18847 whole entry): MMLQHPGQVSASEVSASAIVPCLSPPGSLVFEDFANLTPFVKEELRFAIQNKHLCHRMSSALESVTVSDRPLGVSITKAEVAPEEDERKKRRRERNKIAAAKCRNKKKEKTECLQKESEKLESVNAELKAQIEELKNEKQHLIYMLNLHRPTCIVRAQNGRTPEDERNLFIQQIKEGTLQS
T5 sequence (Q9Y5Q3 whole entry): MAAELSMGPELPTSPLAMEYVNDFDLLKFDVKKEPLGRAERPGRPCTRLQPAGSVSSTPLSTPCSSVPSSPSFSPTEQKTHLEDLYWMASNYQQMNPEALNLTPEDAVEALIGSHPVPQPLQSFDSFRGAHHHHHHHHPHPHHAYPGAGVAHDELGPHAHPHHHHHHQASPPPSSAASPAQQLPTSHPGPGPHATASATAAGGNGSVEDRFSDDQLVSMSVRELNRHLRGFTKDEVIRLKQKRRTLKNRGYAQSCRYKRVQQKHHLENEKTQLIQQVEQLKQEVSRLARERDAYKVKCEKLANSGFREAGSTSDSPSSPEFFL
Chain of X-box binding protein 1 (human) (P17861 whole entry): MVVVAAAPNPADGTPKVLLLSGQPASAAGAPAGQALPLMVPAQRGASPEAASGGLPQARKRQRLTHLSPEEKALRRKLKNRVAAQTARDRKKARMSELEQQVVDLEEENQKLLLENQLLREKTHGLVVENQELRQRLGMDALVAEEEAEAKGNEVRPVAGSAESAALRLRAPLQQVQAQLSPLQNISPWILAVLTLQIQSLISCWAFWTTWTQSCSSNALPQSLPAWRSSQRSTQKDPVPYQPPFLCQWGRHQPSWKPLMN
Chain of CREB1 (human) (P16220 whole entry): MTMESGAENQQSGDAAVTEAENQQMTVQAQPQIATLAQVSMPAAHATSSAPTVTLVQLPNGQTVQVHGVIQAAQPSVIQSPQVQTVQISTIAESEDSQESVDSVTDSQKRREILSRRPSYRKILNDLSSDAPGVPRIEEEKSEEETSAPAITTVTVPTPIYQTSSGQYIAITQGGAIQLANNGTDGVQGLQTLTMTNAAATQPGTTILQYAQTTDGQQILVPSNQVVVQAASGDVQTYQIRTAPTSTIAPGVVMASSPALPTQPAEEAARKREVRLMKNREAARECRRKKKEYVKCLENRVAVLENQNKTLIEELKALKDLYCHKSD
Chain of BATF2 (human) (Q8N1L9 whole entry): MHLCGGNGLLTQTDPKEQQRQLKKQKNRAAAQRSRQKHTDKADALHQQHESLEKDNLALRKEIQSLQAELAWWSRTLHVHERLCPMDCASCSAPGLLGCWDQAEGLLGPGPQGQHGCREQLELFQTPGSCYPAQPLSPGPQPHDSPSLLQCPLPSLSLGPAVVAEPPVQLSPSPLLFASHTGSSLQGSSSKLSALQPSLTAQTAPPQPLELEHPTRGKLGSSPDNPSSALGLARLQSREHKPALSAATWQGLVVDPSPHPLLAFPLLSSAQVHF
Chain of DBP (human) (Q10586 whole entry): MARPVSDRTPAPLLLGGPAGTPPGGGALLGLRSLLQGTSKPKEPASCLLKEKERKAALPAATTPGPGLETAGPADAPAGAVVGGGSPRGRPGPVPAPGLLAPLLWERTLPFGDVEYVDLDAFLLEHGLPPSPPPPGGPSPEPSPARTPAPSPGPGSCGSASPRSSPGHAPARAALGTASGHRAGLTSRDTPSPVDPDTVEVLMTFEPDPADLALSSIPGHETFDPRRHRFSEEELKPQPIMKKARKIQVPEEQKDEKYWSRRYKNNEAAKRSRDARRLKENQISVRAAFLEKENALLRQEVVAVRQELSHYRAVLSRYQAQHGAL
Chain of ATF2 (human) (P15336 whole entry): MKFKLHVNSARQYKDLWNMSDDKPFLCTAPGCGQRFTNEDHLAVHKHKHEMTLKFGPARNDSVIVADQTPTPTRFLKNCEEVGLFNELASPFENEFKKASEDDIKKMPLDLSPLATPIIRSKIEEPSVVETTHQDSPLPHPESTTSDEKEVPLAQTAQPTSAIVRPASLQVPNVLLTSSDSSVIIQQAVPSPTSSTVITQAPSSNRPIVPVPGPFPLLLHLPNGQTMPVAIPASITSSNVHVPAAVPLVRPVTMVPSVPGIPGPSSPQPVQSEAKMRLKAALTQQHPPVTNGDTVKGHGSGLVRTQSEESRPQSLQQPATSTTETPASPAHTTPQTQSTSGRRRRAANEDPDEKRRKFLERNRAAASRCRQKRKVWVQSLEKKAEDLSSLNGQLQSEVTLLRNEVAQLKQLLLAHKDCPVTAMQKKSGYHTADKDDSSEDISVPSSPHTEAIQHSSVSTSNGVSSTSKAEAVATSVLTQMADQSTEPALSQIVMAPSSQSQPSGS

B1: JUN-d1 labeled at the C-terminus (designed binder)
chain: GESKEYKKGSGSSIAATLEKEEANLEKMNKKLAAEIESLLKEKDKLESVLNYHEGC
modifications: also: Cys56: Rhodamine Red C2-maleimide or fluorescein-5-maleimide, by assay
Consider B1, for which the dissociation constant (Kd) is 1.1 nM and 1.2 nM and 1 nM in test [1]; more than 5 µM in test [2]; more than 5 µM in test [3]; more than 5 µM in [4]; more than 5 µM in [5]; more than 5 µM in [6]. For the same molecule, the Kd in [7], in test [8], in test [9], in [10], in test [11] and in [12] was more than 5 µM each time. The Kd in [13] was more than 5000 nM; in test [14], 5.3 nM and 5.5 nM and 6.6 nM; in test [15], 557 nM and 529 nM and 543 nM.

B2: ATF5-d1 labeled at the N-terminus (designed binder)
chain: GESKEYKKGSGSC(Rhodamine Red C2‑maleimide)GKRIAYLRQRIAELRNENHVLESRIQRMEKEKDALQQDRDHLEYEL
Take B2: the Kd in test [16] is more than 5 µM; in test [17] it was more than 5 µM; in test [18], more than 5 µM; in [19], 8.5 nM; in [20], more than 5 µM; in [21], 2.9 nM and 6.9 nM. Moreover, the Kd in [22], in test [23], in [24], in [25], in test [26] and in test [27] was more than 5 µM each time. Also, the Kd in [6] is more than 5 µM; in [28], more than 5 µM; in test [29], more than 5 µM; in test [13] it was 116 nM; in test [30], more than 5 µM.

A word on the Kd: it is the equilibrium constant for the complex coming apart.
